Assay results taken from patent US20080098490A1.
Each block holds one substance with its values, some of them ahead of it.

Experiments:
[1] = molecular target: IL-8 receptors on human neutrophils; assay: 125I-IL-8 binding to human neutrophils, no antibody
[2] = molecular target: TNF-α receptors on U937 cells; assay: 125I-TNF-α binding to U937 cells, no antibody
[3] = molecular target: EGFR expressed on A431 cells or SW948 cells (human) (UniProt P00533); assay: inhibition of [125I]EGF binding to A431 cells (receptor binding assay, % specific bound); blocked ligand: EGF

background binding in the absence of antibody [1]: 2660 cpm
Substance: human IL-8 (from UniProt P10145 28-99) (ligand)

background binding in the absence of antibody [2]: 4010 cpm
Substance: human tumor necrosis factor-α (from UniProt P01375 77-233) (ligand)

IC50 (read off the curve) [3]: 20 nM
Substance: mouse anti-human EGFR antibody 225 (Calbiochem)
